Results reported in the supplement of paper PMC7877785.
± gives the uncertainty stated by the source.

Assay: self-splicing fitness, log relative to wild type (ln ratio); higher = more splicing; Tetrahymena group I intron in knt gene, E. coli kanamycin selection, DiMSum; sequences stand for … in CUCUCU…GGAGGGAAAAGUUAUCAGGCAUGCACCUGGUAGCUAGUCUUUAAACCAAUAGAUUGCAUCGGUUUAAAAGGCAAGACCGUCAAAUUGCGGGAAAGGGGUCAACAGCCGUUCAGUACCAAGUCUCAGGGGAAACUUUGAGAUGGCCUUGCAAAGGGUAUGGUAAUAAGCUGACGGACAUGGUCCUAACCACGCAGCCAAGUCCUAAGUCAACAGAUCUUCUGUUGAUAUGGAUGCAGUUCACAGACUAAAUGUCGGUCGGGGAAGAUGUAUUCUUCUCAUAAGAUAUAGUCGGACCUCUCCUUAAUGGGAGCUAGCGGAUGAAGUGAUGCAACACUGGAGCCGCUGGGAACUAAUUUGUAUGCGAAAGUAUAUUGAUUAGUUUUGGAGUACUCGUGGUCG
In short: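 Fitness was computed with DiMSum as the error-weighted combination of replicate fold changes, kanamycin versus none, each normalised to wild type. The library randomised all eight intron nucleotides of the P1ex region, with the intron placed in the knt kanamycin-resistance gene on pET-22b(+) in E. coli BL21(DE3). Six replicate transformations were grown overnight at 37°C or 30°C on LB agar with or without 25 μg/mL kanamycin, plus 100 μg/mL carbenicillin, 50 μM IPTG and 0.2% rhamnose. Pooled colonies were amplicon-sequenced on an Illumina HiSeq 2500.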

Row | Sequence | self-splicing fitness (ln) (37 °C) | self-splicing fitness (ln) (30 °C)
1 | GGGGAGCAAUAUUACGUUUG | -2.43 ± 0.37 | 
2 | GGGUAGCAAUAUUACGAAAU | -0.914 ± 0.11 | -1.8 ± 0.11
3 | GGGUAGCAAUAUUACGAAUA | -0.878 ± 0.18 | -0.00785 ± 0.18
4 | GGGUAGCAAUAUUACGACAC | -0.155 ± 0.35 | -0.676 ± 0.33
5 | GGGUAGCAAUAUUACGAGAU | -1.59 ± 0.21 | -2.43 ± 0.19
6 | GGGUAGCAAUAUUACGAGUA | 0.307 ± 0.22 | 
7 | GGGUAGCAAUAUUACGAGUC | -0.588 ± 0.17 | -3.63 ± 0.26
8 | GGGUAGCAAUAUUACGAUGC | -0.295 ± 0.19 | -0.816 ± 0.14
9 | GGGUAGCAAUAUUACGCAGC | -0.837 ± 0.12 | -2.55 ± 0.13
10 | GGGUAGCAAUAUUACGCGCA | -0.0359 ± 0.14 | -0.0848 ± 0.13
11 | GGGUAGCAAUAUUACGCGGA | -1.06 ± 0.13 | -2.64 ± 0.27
12 | GGGUAGCAAUAUUACGCGUA | -0.35 ± 0.11 | -0.49 ± 0.1
13 | GGGUAGCAAUAUUACGCUAU | -2.98 ± 0.31 | -2.86 ± 0.22
14 | GGGUAGCAAUAUUACGCUUC |  | -2.91 ± 0.25
15 | GGGUAGCAAUAUUACGGACG | -2.1 ± 0.2 | -1.74 ± 0.13
16 | GGGUAGCAAUAUUACGGAUC | 0.637 ± 0.17 | 0.0263 ± 0.12
17 | GGGUAGCAAUAUUACGGAUG | -2.61 ± 0.28 | -1.19 ± 0.17
18 | GGGUAGCAAUAUUACGGAUU | -0.333 ± 0.23 | -0.431 ± 0.19
19 | GGGUAGCAAUAUUACGGCGC | -1.14 ± 0.12 | -0.217 ± 0.12
20 | GGGUAGCAAUAUUACGGCUG | -1.05 ± 0.14 | -0.592 ± 0.11
21 | GGGUAGCAAUAUUACGGGAA | -1.86 ± 0.27 | -3.91 ± 0.42
22 | GGGUAGCAAUAUUACGGGUA | -1.1 ± 0.21 | -1.55 ± 0.28
23 | GGGUAGCAAUAUUACGGGUU | -1.27 ± 0.14 | -2.7 ± 0.15
24 | GGGUAGCAAUAUUACGGUUA | -0.344 ± 0.12 | -1.43 ± 0.14
25 | GGGUAGCAAUAUUACGGUUG | -0.949 ± 0.17 | -2.88 ± 0.14

Row | Sequence | self-splicing fitness (ln) (37 °C) | self-splicing fitness (ln) (30 °C)
26 | GGGUAGCAAUAUUACGUAAG | -0.429 ± 0.15 | -1.46 ± 0.14
27 | GGGUAGCAAUAUUACGUAGC | -0.648 ± 0.16 | -0.707 ± 0.15
28 | GGGUAGCAAUAUUACGUCCA | 0.376 ± 0.12 | -0.128 ± 0.093
29 | GGGUAGCAAUAUUACGUCGU | 0.73 ± 0.12 | -0.541 ± 0.086
30 | GGGUAGCAAUAUUACGUCUG | -1.15 ± 0.14 | -1.21 ± 0.12
31 | GGGUAGCAAUAUUACGUGGU | -2.04 ± 0.17 | -2.59 ± 0.13
32 | GGGUAGCAAUAUUACGUGUU | -0.992 ± 0.11 | -1.37 ± 0.097
33 | GGGUAGCAAUAUUACGUUGG | -2.14 ± 0.32 | -3.28 ± 0.28
34 | GGUAAGCAAUAUUACGACAA | -0.112 ± 0.16 | -0.393 ± 0.1
35 | GGUAAGCAAUAUUACGACAU | -0.0479 ± 0.033 | -0.0747 ± 0.013
36 | GGUAAGCAAUAUUACGACCA | -0.643 ± 0.21 | -1.47 ± 0.17
37 | GGUAAGCAAUAUUACGAGCA | -0.377 ± 0.12 | -0.801 ± 0.093
38 | GGUAAGCAAUAUUACGAGGU | -2.22 ± 0.28 | -3.61 ± 0.37
39 | GGUAAGCAAUAUUACGAUUC | 0.0485 ± 0.14 | -0.184 ± 0.14
40 | GGUAAGCAAUAUUACGCCAU | -1.86 ± 0.29 | -2.39 ± 0.36
41 | GGUAAGCAAUAUUACGCGGU | -0.403 ± 0.15 | -3.85 ± 0.31
42 | GGUAAGCAAUAUUACGGAAA | -0.547 ± 0.16 | -3.13 ± 0.35
43 | GGUAAGCAAUAUUACGGGGG | -3.13 ± 0.2 | -3.98 ± 0.46
44 | GGUAAGCAAUAUUACGGUAA | -0.53 ± 0.14 | -1.6 ± 0.17
45 | GGUAAGCAAUAUUACGGUCC |  | -1.57 ± 0.34
46 | GGUAAGCAAUAUUACGUCUA | -0.562 ± 0.1 | -0.569 ± 0.1
47 | GGUAAGCAAUAUUACGUGCC | -3.07 ± 0.38 | -3.17 ± 0.39
48 | GGUAAGCAAUAUUACGUGCG | -0.227 ± 0.12 | -1.12 ± 0.12
49 | GGUAAGCAAUAUUACGUGCU | -1.36 ± 0.2 | -2.24 ± 0.18
50 | GGUAAGCAAUAUUACGUUAA | -1.37 ± 0.2 | -2.57 ± 0.29

Row | Sequence | self-splicing fitness (ln) (37 °C) | self-splicing fitness (ln) (30 °C)
51 | GGUAAGCAAUAUUACGUUGC | -2.95 ± 0.4 | -3.3 ± 0.32
52 | GGUAAGCAAUAUUACGUUUA | -0.278 ± 0.11 | -2.68 ± 0.17
53 | GGUCAGCAAUAUUACGAAAU | 0.351 ± 0.12 | -1.15 ± 0.097
54 | GGUCAGCAAUAUUACGAACU | -1.74 ± 0.21 | -0.446 ± 0.25
55 | GGUCAGCAAUAUUACGACUU | -1.09 ± 0.087 | -0.64 ± 0.081
56 | GGUCAGCAAUAUUACGAGCA |  | -0.762 ± 0.32
57 | GGUCAGCAAUAUUACGAGUA | -1.32 ± 0.14 | -2.09 ± 0.18
58 | GGUCAGCAAUAUUACGCCAG | -3.3 ± 0.4 | -3.3 ± 0.47
59 | GGUCAGCAAUAUUACGCGCU | -2.13 ± 0.15 | 
60 | GGUCAGCAAUAUUACGCUAA | 0.512 ± 0.13 | -1.1 ± 0.095
61 | GGUCAGCAAUAUUACGGAAA | -0.845 ± 0.11 | -1.22 ± 0.11
62 | GGUCAGCAAUAUUACGGGCA | -0.119 ± 0.11 | -0.684 ± 0.1
63 | GGUCAGCAAUAUUACGGUCG | 0.661 ± 0.09 | -0.085 ± 0.066
64 | GGUCAGCAAUAUUACGGUCU | -0.217 ± 0.13 | -1.28 ± 0.12
65 | GGUCAGCAAUAUUACGGUUG | -0.43 ± 0.12 | -1.07 ± 0.1
66 | GGUCAGCAAUAUUACGUACG | -0.609 ± 0.082 | 0.123 ± 0.08
67 | GGUCAGCAAUAUUACGUAUG | 0.0829 ± 0.1 | -1.66 ± 0.085
68 | GGUCAGCAAUAUUACGUGAU | -2.14 ± 0.11 | -3.88 ± 0.22
69 | GGUCAGCAAUAUUACGUGUA | -0.855 ± 0.082 | -0.892 ± 0.071
70 | GGUCAGCAAUAUUACGUGUC | -0.0483 ± 0.13 | -0.998 ± 0.12
71 | GGUCAGCAAUAUUACGUUCA | -0.487 ± 0.13 | -0.169 ± 0.13
72 | GGUCAGCAAUAUUACGUUCG | 0.373 ± 0.13 | -0.853 ± 0.093
73 | GGUGAGCAAUAUUACGAAAA | -2.66 ± 0.38 | -2.57 ± 0.32
74 | GGUGAGCAAUAUUACGACCA | -0.616 ± 0.31 | -1.21 ± 0.25
75 | GGUGAGCAAUAUUACGACCU | -2.52 ± 0.49 | -2.12 ± 0.26

Row | Sequence | self-splicing fitness (ln) (37 °C) | self-splicing fitness (ln) (30 °C)
76 | GGUGAGCAAUAUUACGACUG | 0.309 ± 0.13 | -0.488 ± 0.11
77 | GGUGAGCAAUAUUACGAGAU | -2.44 ± 0.24 | 
78 | GGUGAGCAAUAUUACGAGGA | -2.02 ± 0.33 | -1.95 ± 0.39
79 | GGUGAGCAAUAUUACGAUUU | -0.612 ± 0.25 | -1.35 ± 0.23
80 | GGUGAGCAAUAUUACGCCAG |  | -2.86 ± 0.47
81 | GGUGAGCAAUAUUACGCCGA | -1.46 ± 0.48 | -2.06 ± 0.46
82 | GGUGAGCAAUAUUACGCGUA | -0.54 ± 0.21 | -1.95 ± 0.3
83 | GGUGAGCAAUAUUACGGAAU | 0.428 ± 0.28 | -2.53 ± 0.39
84 | GGUGAGCAAUAUUACGGCUU | -0.614 ± 0.17 | -1.7 ± 0.16
85 | GGUGAGCAAUAUUACGGGUC | -2.4 ± 0.15 | -1.98 ± 0.11
86 | GGUGAGCAAUAUUACGGUGU | -2.05 ± 0.31 | -3.9 ± 0.36
87 | GGUGAGCAAUAUUACGUCGG | -2.5 ± 0.3 | -2.16 ± 0.28
88 | GGUGAGCAAUAUUACGUGGG | -2.09 ± 0.23 | -3.2 ± 0.23
89 | GGUGAGCAAUAUUACGUUCC | -0.666 ± 0.24 | -1.39 ± 0.18
90 | GGUGAGCAAUAUUACGUUCU | -1.16 ± 0.27 | 0.501 ± 0.28
91 | GGUGAGCAAUAUUACGUUGA | -1.05 ± 0.18 | -2.7 ± 0.43
92 | GGUUAGCAAUAUUACGACGC | 0.289 ± 0.16 | 0.551 ± 0.17
93 | GGUUAGCAAUAUUACGACGU | 0.738 ± 0.089 | 0.152 ± 0.071
94 | GGUUAGCAAUAUUACGACUC | -0.677 ± 0.21 | -1.58 ± 0.17
95 | GGUUAGCAAUAUUACGAGGU | -2.43 ± 0.32 | 
96 | GGUUAGCAAUAUUACGCCCG | -1.55 ± 0.48 | -3.15 ± 0.49
97 | GGUUAGCAAUAUUACGCCGA | -0.734 ± 0.23 | -1.52 ± 0.25
98 | GGUUAGCAAUAUUACGCCUC | -1.4 ± 0.2 | -0.314 ± 0.17
